Experimental data reported in US10080776B2, “Molecular marker for cancer stem cell” (Sapporo Medical University, priority 2008, dated 2018).
Entries after “also recorded” stand apart in the source; their conditions may differ. No end group written: not given here.

What was measured:
HLA-A2402 = HLA-A2402 (Homo sapiens, UniProt P04439, D101N/D140Y/D185E/E176V/E190D/F33S/G103R/G107R/I119L/I121M/I306V/K335N/L105A/L180Q/L300P/N151K/N90K/Q86E/Q94H/R106L/R138H/R89G/T104I/T345S/V100E/W191G/Y123F); assay: HLA-A24 peptide binding assay of or7c1-derived peptides; conditions: T2A24 cells, fluorescence of HLA-A24 antibody
Description: Cell line T2A24 for which HLA-A2402 had been gene-transferred to peptide transporter-deficient T2 cells was used in an assay, and experiment was carried out in the same way as in Experimental Example 16. In this Experimental Example, SL-8 was used as a negative control, and survivin-2B (SEQ ID No: 72) was used as a positive control.
The peptides below were prepared in the same way as in Experimental Example 26, and a binding assay was carried out.

[1] = test system: T2A24 cells pulsed with peptide; assay: Cr51 cytotoxicity assay: SOX2 peptide-induced CTLs against peptide-pulsed T2A24; format: cell-based, human; conditions: Cr51 release, 4 hours
Description: 50 mL of peripheral blood from HLA-A24-positive lung cancer patients who gave informed consent and HLA-A24-positive healthy subjects was centrifuged in a Ficoll-Conray density gradient, and peripheral blood mononuclear cells (PBMC) were separated and collected. Subsequently, lymphocytes of PBMC were separated into CD8-positive lymphocytes and CD8-negative lymphocytes using CD8 MACS beads.
In a 96 well plate, 200000 cells/well of CD8-negative lymphocytes and the above-mentioned HLA-A24 binding SOX2 peptide were mixed, and the mixture was allowed to stand at room temperature for 2 hours, and then subjected to a degree of 100 Gy radiation treatment. […] The peptide-specific reactivity of the induced CTLs was evaluated by a cytotoxicity assay or an ELISPOT assay.
Cr^51 was added to T2A24 cells, the cells were cultured in RPMI medium at 37° C. for 1 hour, radiolabeled, and washed with RPMI medium 4 times. […] Supernatant was then collected, and the gamma-ray dose was measured using a gamma counter.
The dose when only RPMI medium and peptide-pulsed T2A24 were cultured was defined as spontaneous release (SPR), the dose when cell lysate (2% NP40) and peptide-pulsed T2A24 were cultured was defined as maximum release (MXR), and cellular cytotoxicity was calculated as (measured value−SPR)/(MXR−SPR)×100.

[2] = test system: T2A24 pulsed with peptide; assay: 51Cr release assay with CTLs and or7c1 peptide-pulsed T2A24; format: cell-based, human; conditions: T2A24 pulsed with 5 μg/mL peptide, E/T ratios of 20 and 6
Description: PBMC was separated from whole blood (heparin added) sampled from a test subject using Lymphoprep (Nycomed). After PBMC was cultured at 37° C. for 24 hours, an experiment was carried out using non-adherent cells. In order to obtain CD8-positive cells from the non-adherent cells, CD8-positive and -negative cells were separated using a magnetic cell separation system (Miltenyi Biotech). For CD8-negative cells, 100 U/mL IL-2 and 1 μg/mL PHA-P were added to AIM-V medium (Life Technologies) to give PHA-blast. The CD8-positive cells were cultured in AIM-V medium at 37° C. and stimulated with ⅕ the amount of PHA-blast three times every 7 days (0th day, 7th day, 14th day). From the 8th day, 50 U/mL of IL-2 was added to the medium, and thereafter every 3 to 4 days the medium was exchanged, and 50 U/mL of IL-2 was added. The cells were subjected as CTLs to ELISPOT on the 21st day and a ^51Cr release assay on the 28th day.
In an assay for measuring cellular cytotoxicity, cells were labeled with radioactive ^51Cr, and cellular cytotoxicity by CTLs was measured. CTLs were used as effector cells, and T2A24, K562, Sw480, and Sw480 constitutively expressing or7c1 were used as target cells. […] Kill %=(measured release−spontaneous release)×100/(maximum release−spontaneous release)

| Substance | binding to HLA-A2402 (HLA-A2402) | other results |
| --- | --- | --- |
| KYRPRRKTKTL [SOX2_109 peptide, KYRPRRKTKTL] |  | cellular cytotoxicity of CTLs against peptide-pulsed T2A24 [1]: strong radiation was detected; also recorded: extremely high level of cytotoxicity |
| RYLRDQQLLGI [HIV-derived peptide, reference compound] |  | cellular cytotoxicity of CTLs against peptide-pulsed T2A24 [1]: hardly any radiation due to damaged cells was detected |
| TYAGCLSQIF [93(10), TYAGCLSQIF] |  | cellular cytotoxicity (kill %) [2]: higher cellular cytotoxicity |

Now from value to substance, other results behind:

| binding to HLA-A2402 (HLA-A2402) | Substance | other results |
| --- | --- | --- |
| binding to HLA-A2402 was observed | FYGTGFGVYL (peptide fragment of OR7C1) [251(10)] |  |
| binding to HLA-A2402 was observed | HYTViMNPQL (HYTVIMNPQL; not fully specified (residue 5); printed as HYTViMNPQL) [131(10)] |  |
| binding to HLA-A2402 was observed | MYTMVTPML (peptide fragment of OR7C1) [277(9)] |  |
| binding to HLA-A2402 was observed | MYLVTFTGNL (peptide fragment of OR7C1) [34(10)] |  |
